Substitutions are numbered along the chain they refer to.
B1: GOMP001_bsAb_020 (bispecific antibody, human IgG1, kappa, L234A L235A)
heavy 1: EVQLVDSGGGLVQPGGSLRLSCSGSGFTFSSYWMSWVRYAPGKGLEWVANIKQDGSQKYYVDRVKGRFTISRDNVKNSLYLQMNSLRVEDTAVYYCARDESSSWYWYFDLWGRGTLVTVSSASTKGPSVFPLAPSSKSTSGGTAALGCLVKDYFPEPVTVSWNSGALTSGVHTFPAVLQSSGLYSLSSVVTVPSSSLGTQTYICNVNHKPSNTKVDKKVEPKSCDKTHTCPPCPAPEAAGGPSVFLFPPKPKDTLMISRTPEVTCVVVDVSHEDPEVKFNWYVDGVEVHNAKTKPREEQYNSTYRVVSVLTVLHQDWLNGKEYKCKVSNKALPAPIEKTISKAKGQPRRPRVYTLPPSREEMTKNQVSLVCLVKGFYPSDIAVEWESNGQPENNYKTTPPVLDSDGSFFLYSVLTVDKSRWQQGNVFSCSVMHEALHNHYTQKSLSLSPG
light 1: DIQMTQSPSTLSASVGDRVTLTCRASQNIVKWLAWYQRKPGDAPKLLIYKASSLESGVPSWFSGSGSGTEFTLTINSLQPDDFATYYCQQYYTYSRTFGQGTKVEIKRTVAAPSVFIFPPSDEQLKSGTASVVCLLNNFYPREAKVQWKVDNALQSGNSQESVTEQDSKDSTYSLSSTLTLSKADYEKHKVYACEVTHQGLSSPVTKSFNRGEC
heavy 2: QVQLVQSGAEVKKPGASVKVSCKASGYTFTSHWMHWVRYAPGQGLEWIGEFNPSNGRTNYNEKFKSKATMTVDTSTNTAYMELSSLRSEDTAVYYCASRDYDYDGRYFDYWGRGTLVTVSSASTKGPSVFPLAPSSKSTSGGTAALGCLVKDYFPEPVTVSWNSGALTSGVHTFPAVLQSSGLYSLSSVVTVPSSSLGTQTYICNVNHKPSNTKVDKKVEPKSCDKTHTCPPCPAPEAAGGPSVFLFPPKPKDTLMISRTPEVTCVVVDVSHEDPEVKFNWYVDGVEVHNAKTKPREEQYNSTYRVVSVLTVLHQDWLNGKEYKCKVSNKALPAPIEKTISKAKGQPRRPRVYTLPPSREEMTKNQVSLVCLVKGFYPSDIAVEWESNGQPENNYKTTPPVLDSDGSFFLYSVLTVDKSRWQQGNVFSCSVMHEALHNHYTQKSLSLSPG
light 2: DIQMTQSPSSLSASVGDRVTITCSASSSVTYMYWYQRKPGDAPKLLIYDTSNLASGVPSRFSGSGSGTDYTFTISSLQPEDIATYYCQQWSSHIFTFGQGTKVEIKRTVAAPSVFIFPPSDEQLKSGTASVVCLLNNFYPREAKVQWKVDNALQSGNSQESVTEQDSKDSTYSLSSTLTLSKADYEKHKVYACEVTHQGLSSPVTKSFNRGEC
B2: GOMP001_bsAb_023 (bispecific antibody, human IgG1, kappa, L234A L235A)
heavy 1: QVQLVQSGAEVKKPGASVKVSCKASGYTFTSHWMHWVRKAPGQGLEWIGEFNPSNGRTNYNEEFKSKATMTVDTSTNTAYMELSSLRSEDTAVYYCASRDYDYDGRYFDYWGQGTLVTVSSASTKGPSVFPLAPSSKSTSGGTAALGCLVADYFPEPVTVSWNSGALTSGVHTFPAVLQSSGLYSLSSVVTVPSSSLGTQTYICNVNHKPSNTKVDEKVEPKSCDKTHTCPPCPAPEAAGGPSVFLFPPKPKDTLMISRTPEVTCVVVDVSHEDPEVKFNWYVDGVEVHNAKTKPREEQYNSTYRVVSVLTVLHQDWLNGKEYKCKVSNKALPAPIEKTISKAKGQPREPQVYTLPPSREEMTDNQVSLTCLVKGFYPSDIAVEWESNGQPENNYKTTPPVLMSDGSFFLASKLTVDKSRWQQGNVFSCSVMHEALHNHYTQKSLSLSPG
light 1: B1 light 2 with D1R, R37D, D41K, E122K, S130R
heavy 2: QGQLVESGGGVVQPGRSLRLSCEASGFTFRSYGMHWVRYPPGKGLEWVAIIWYDGGKKYYGDRVKGRFTISRDNPKNTLYLQMNSLRPEDTAVYYCMAYDYSNGFDIWGRGTMVTVSSASTKGPSVFPLAPSSKSTSGGTAALGCLVKDYFPEPVTVSWNSGALTSGVHTFPAVLQSSGLYSLSSVVTVPSSSLGTQTYICNVNHKPSNTKVDKKVEPKSCDKTHTCPPCPAPEAAGGPSVFLFPPKPKDTLMISRTPEVTCVVVDVSHEDPEVKFNWYVDGVEVHNAKTKPREEQYNSTYRVVSVLTVLHQDWLNGKEYKCKVSNKALPAPIEKTISKAKGQPRRPRVYTLPPSREEMTKNQVSLVCLVKGFYPSDIAVEWESNGQPENNYKTTPPVLDSDGSFFLYSVLTVDKSRWQQGNVFSCSVMHEALHNHYTQKSLSLSPG
light 2: DIVMTQTPLSSPVTLGQPASISCRSSQSFVHSDGSTYLSWLQRRPGDPPRLLIYKISNRFSGVPDRFSGRGAGTDFTLKISRVEAEDVGIYYCMQNTQFPYTFGQGTKLEIKRTVAAPSVFIFPPSDEQLKSGTASVVCLLNNFYPREAKVQWKVDNALQSGNSQESVTEQDSKDSTYSLSSTLTLSKADYEKHKVYACEVTHQGLSSPVTKSFNRGEC
B3: GOMP001_bsAb_024 (bispecific antibody, human IgG1, kappa, L234A L235A)
heavy 1: B2 heavy 2
light 1: B2 light 2
heavy 2: B1 heavy 2
light 2: B1 light 2
B4: GOMP001_bsAb_029 (bispecific antibody, human IgG1, kappa, L234A L235A)
heavy 1: B2 heavy 1
light 1: B1 light 2 with D1R, R37D, D41K, E122K, S130R
heavy 2: QVQLVQSGAEVKKPGASVKVSCKASGYTVTGYYMHWVRYAPGQGLEWMGWINPNSGGTNFAQRFQGRVTMTRDTSISTFYMDLNRLRSDDTAVYYCARGGAPVSYWFFDLWGRGTLVTVSSASTKGPSVFPLAPSSKSTSGGTAALGCLVKDYFPEPVTVSWNSGALTSGVHTFPAVLQSSGLYSLSSVVTVPSSSLGTQTYICNVNHKPSNTKVDKKVEPKSCDKTHTCPPCPAPEAAGGPSVFLFPPKPKDTLMISRTPEVTCVVVDVSHEDPEVKFNWYVDGVEVHNAKTKPREEQYNSTYRVVSVLTVLHQDWLNGKEYKCKVSNKALPAPIEKTISKAKGQPRRPRVYTLPPSREEMTKNQVSLVCLVKGFYPSDIAVEWESNGQPENNYKTTPPVLDSDGSFFLYSVLTVDKSRWQQGNVFSCSVMHEALHNHYTQKSLSLSPG
light 2: DIQMTQSPSSLSASVGDRVTITCRASQSISRYLNWYQRKPGDAPKVLIYNTSSLKSGVPSRFSGSGSGTDFTLTISSLQPEDFGTFYCQQSHSTPFTFGPGTKVDIKRTVAAPSVFIFPPSDEQLKSGTASVVCLLNNFYPREAKVQWKVDNALQSGNSQESVTEQDSKDSTYSLSSTLTLSKADYEKHKVYACEVTHQGLSSPVTKSFNRGEC
B5: GOMP001_bsAb_030 (bispecific antibody, human IgG1, kappa, L234A L235A)
heavy 1: B4 heavy 2
light 1: B4 light 2
heavy 2: B1 heavy 2
light 2: B1 light 2
B6: GOMP001_bsAb_031 (bispecific antibody, human IgG1, kappa, L234A L235A)
heavy 1: B2 heavy 1
light 1: B1 light 2 with D1R, R37D, D41K, E122K, S130R
heavy 2: QGQLVESGGGVVQPGRSLRLSCAASGFTFRGFGMHWVRYAPGKGLEWVAIIYYDGKNKYYADRVKGRFTISRDNSKNTLYLQMNSLRAEDTAVYYCAKGGGYNWFDPWGRGTLVTVSSASTKGPSVFPLAPSSKSTSGGTAALGCLVKDYFPEPVTVSWNSGALTSGVHTFPAVLQSSGLYSLSSVVTVPSSSLGTQTYICNVNHKPSNTKVDKKVEPKSCDKTHTCPPCPAPEAAGGPSVFLFPPKPKDTLMISRTPEVTCVVVDVSHEDPEVKFNWYVDGVEVHNAKTKPREEQYNSTYRVVSVLTVLHQDWLNGKEYKCKVSNKALPAPIEKTISKAKGQPRRPRVYTLPPSREEMTKNQVSLVCLVKGFYPSDIAVEWESNGQPENNYKTTPPVLDSDGSFFLYSVLTVDKSRWQQGNVFSCSVMHEALHNHYTQKSLSLSPG
light 2: DIQMTQSPSSLSASVGDRVTITCRASQSISTYLNWYQRKPGDAPKLLIYSASSLQSGVPSRFSGSGSGTDFTLTISNLQPEDFAIYYCQRSYSPPFTFGPGTKLDIRRTVAAPSVFIFPPSDEQLKSGTASVVCLLNNFYPREAKVQWKVDNALQSGNSQESVTEQDSKDSTYSLSSTLTLSKADYEKHKVYACEVTHQGLSSPVTKSFNRGEC

biological target: human EGFR, C-terminal eGFP-tagged, on CHO-K1 cells (human, UniProt P00533 25-1210); assay: cell-based or functional assay

Q: For B1, which “EC50 CHO-K1 EGFR Low (nM); T cell activation bioassay, luciferase” value (“EC50 CHO-K1 EGFR Low (nM)” below) is on record?
A: 0.235 nM

Q: And the “EC50 CHO-K1 EGFR Med (nM); T cell activation bioassay, luciferase” value (“EC50 CHO-K1 EGFR Med (nM)” below)?
A: 0.0102 nM

Q: With B2 as the binder, how does the “EC50 CHO-K1 EGFR Low (nM)” value read?
A: 8.34 nM

Q: And the “EC50 CHO-K1 EGFR Med (nM)” value?
A: 1.71 nM

Q: What does the source list for B3?
A: EC50 CHO-K1 EGFR Low (nM); T cell activation bioassay, luciferase: 0.245 nM; EC50 CHO-K1 EGFR Med (nM); T cell activation bioassay, luciferase: 0.122 nM

Q: How did the “EC50 CHO-K1 EGFR Low (nM)” value turn out when B4 was run?
A: 0.271 nM

Q: What about the “EC50 CHO-K1 EGFR Med (nM)” value of the same binder?
A: 0.0226 nM

Q: What does the source list for B5?
A: EC50 CHO-K1 EGFR Low (nM); T cell activation bioassay, luciferase: 0.0644 nM; EC50 CHO-K1 EGFR Med (nM); T cell activation bioassay, luciferase: 0.00272 nM

Q: How did the “EC50 CHO-K1 EGFR Low (nM)” value turn out when B6 was run?
A: 1.66 nM

Q: And the “EC50 CHO-K1 EGFR Med (nM)” value?
A: 0.446 nM
